Assay results reported in patent US12594347B2, “Nanoparticulate drug delivery systems” (Duke University, priority 2018, dated 2026).
Values joined by “and” are separate entries in the source; they are usually repeats but may differ in a detail not shown here. Identical values can stand only once.

Key:
[1] = target: mouse serum albumin (MSA) (Mus musculus, UniProt P07724); assay: Isothermal titration calorimetry (VP-ITC) of polypeptide carriers and DOX micelles with mouse albumin; type: binding; conditions: PBS pH 7.4, 37° C.
Sequence of mouse serum albumin (MSA) (P07724 25-608): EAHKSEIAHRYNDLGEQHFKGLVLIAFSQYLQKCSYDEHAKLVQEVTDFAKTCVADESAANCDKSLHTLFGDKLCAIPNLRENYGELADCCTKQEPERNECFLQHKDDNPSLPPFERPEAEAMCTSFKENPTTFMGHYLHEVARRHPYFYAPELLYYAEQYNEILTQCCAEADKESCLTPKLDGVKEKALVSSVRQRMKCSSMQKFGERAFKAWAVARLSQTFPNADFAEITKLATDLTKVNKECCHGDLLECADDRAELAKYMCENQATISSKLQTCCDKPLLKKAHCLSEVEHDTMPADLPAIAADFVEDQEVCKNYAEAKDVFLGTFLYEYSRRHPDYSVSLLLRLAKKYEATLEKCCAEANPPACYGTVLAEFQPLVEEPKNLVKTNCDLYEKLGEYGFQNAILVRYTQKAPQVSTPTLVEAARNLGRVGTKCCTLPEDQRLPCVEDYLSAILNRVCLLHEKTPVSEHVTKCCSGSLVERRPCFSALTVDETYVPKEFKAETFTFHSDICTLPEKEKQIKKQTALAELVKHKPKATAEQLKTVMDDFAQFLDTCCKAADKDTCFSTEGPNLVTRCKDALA
Procedure: Interaction with albumin. Interaction of CP monomers and micelles with human and mouse albumin was analyzed by isothermal titration calorimetry (ITC).

[2] = test system: C26 murine colon adenocarcinoma cells
Procedure: C26 murine colon adenocarcinoma cells were seeded (5000 cells/well) in a 96-well plate. After 24 h, cells were treated in triplicate with 3-fold serial dilutions of drugs beginning with 100 uM. After 72 h incubation, 20 μL of CellTiter 96 AQueous™ (Promega; Madison, WI) 3-(4,5-dimethlthiazol-2-yl)-5-(3-carboxymethoxphenyl)-2-(4-sulfophenyl)-2H-tetrazolium (MTS) reagent was added to each well followed by 3 h incubation at 37° C. The absorbance at 490 nm was determined using a Victor3™ microplate reader (Perkin Elmer; Waltham, MA). For each plate, blank wells (with no cells) were defined as 0% viability and wells treated with PBS were defined as 100% viability. The background absorbance at 490 nm was corrected by subtracting the average absorbance of the blank wells from each well. The percent viability was defined as the absorbance of each well normalized to the absorbance of wells treated with PBS. Inhibitory concentration (IC 50) values were calculated using a four-parameter logistic fit in the Prism program (GraphPad Software, San Diego, CA, USA).

Canine pharmacokinetics = conditions: dogs
Excerpt: Canine pharmacokinetics and toxicities. […] All procedures and protocols involving care, handling, and dosing for this study were reviewed and approved by the Institutional Animal Care and Use Committee (IACUC) at North Carolina State University College of Veterinary Medicine, which is an AAALAC-accredited facility. The animals' health status were monitored daily by the animal technicians and veterinary staff, paying particular attention for signs of gastrointestinal toxicities including vomiting, diarrhea, lethargy, and inappetence. If noted, supportive care was provided. […] 2 mL blood samples were drawn from jugular vein at 40 s, 15 and 30 min, 2, 4, 8, 24, 48, and 72 h after injection, diluted into 400 μL heparinized PBS (1000 UmL^−1). Sample processing and analysis were performed as with murine pharmacokinetics studies.

[3] = Pharmacokinetics of CP-DOX and ABDN-CP-DOX micelles in mice; type: in vivo; conditions: Balb/C mice; for Apparent distribution volume VD / Distribution half-life β t1/2 / Elimination rate constant kg / Plasma clearance CL / Plasma to tissue rate constant kpt / Tissue to plasma rate constant ktp / Area under the curve AUC / Elimination half-life α t1/2: tail vein; for Area under the curve AUC / Elimination half-life α t1/2: plasma DOX
Procedure: The isopropanol extract was then centrifuged (14,000 RPM, 10 min, 4° C.) and 125 uL of the supernatant was loaded onto a black 96-well plate (BD Biosciences) in duplicate.

[4] = Dynamic and static light scattering; type: physicochemical; conditions: for Rh / Nagg / Rg: PBS; for Nagg / Rg: SLS
Procedure: Light Scattering. Dynamic and static light scattering measurements were performed using an ALV/CGS-3 goniometer system (Germany). […] To study the effect of albumin binding on micellar self-assembly, mouse albumin was added to the samples at 1:1 albumin-CP molar ratio in PBS. Measurements were obtained at 25° C. and 37° C. for angles between 30-150° at 5° increments with each angle consisting of 3 runs and 10 s each at each run. Hydrodynamic radius (Rh) was determined by dynamic light scattering. The radius of gyration (Rg) and the average molecular weight of the particle (MW) were calculated from the slope and intercept of a partial Zimm plot, respectively, using ALV/Dynamic and Static FIT and PLOT software and according. The micelle aggregation number Nagg, or the number of polypeptide chains per nanoparticle, was calculated by dividing the micelle molecular weight by the molecular weight of the polypeptide monomer.
Size and morphology of CP conjugated micelles. The radius and the aggregation number of the self-assembled micelles were determined, in the presence and absence of albumin, by dynamic and static light scattering at 37° C. using an ALV/CGS-3 goniometer system (Germany). Freeze fracture electron microscopy was performed to visualize the micelles and estimate their radius and morphology.

[5] = Biodistribution in C26 tumor-bearing mice; type: in vivo, Balb/C mice; conditions: 2 h and 24 h time points
Procedure: Cell culture and tumor inoculation.
Biodistribution. […] At 2 and 24 h after injection, tissues (tumor, muscle, heart, lung, liver, spleen and kidney) were removed, weighed and suspended in 1.0 mL acidified isopropanol (75 mM HCl, 10% water, 90% isopropanol). Tissues were then homogenized using 2 mm diameter zirconia beads and a MiniBeadbeater-1TM (Biospec; Bartlesville, OK) for 2 min at 5,000 beats per minute and were incubated overnight at 4° C. in the dark. The isopropanol extracts were then vortexed, and centrifuged (14,000 RPM, 10 min, 4° C.) and 125 uL of the supernatant was loaded onto a black 96-well plate (BD Biosciences) in duplicate. […] To correct for background tissue fluorescence, tissues were removed from three untreated control mice and were processed similarly. For each tissue, a background (counts per mg tissue) curve was created using 2-fold dilutions of the processed tissues in acidified isopropanol.

[6] = Canine serum chemistry one week after administration; type: in vivo, dogs (beagles and hounds); conditions: dogs
Excerpt: Canine pharmacokinetics and toxicities. […] If noted, supportive care was provided.

[7] = Thermal turbidimetry (transition temperature); type: physicochemical; conditions: PBS (FIG. 8D)
Procedure: Thermal Turbidimetry. Thermal profiles of CPs and CP conjugates were determined by measuring the transition temperature (Tt) over a range of concentrations (5, 10, 25, 50, and 100 uM) in PBS, FBS, and MS using a Cary UV-visible spectrophotometer equipped with temperature controller (Agilent Technologies, CA, USA). […] The transition temperature was defined as the maximum first derivative of the optical density.

[8] = cephalic vein, 27 DOX Equiv/m^−2 BSA or 0.9 mg DOX Equiv/kg BW
[9] = printed 'at the dose of 10 mg/kg BW DOX equivalent' (first statement of b160)
[10] = one week after administration, individual subjects

B1: ABDN-CP-DOX (conjugate)
chain: LAEAKVLANRELDKYGVSDYYKNLINNAKTVEGVKALIDEILAALPVPGAGVPGAGVPGAGVPGAGVPGAGVPGAGVPGAGVPGAGVPGAGVPGAGVPGAGVPGAGVPGAGVPGAGVPGAGVPGAGVPGAGVPGAGVPGAGVPGAGVPGAGVPGAGVPGAGVPGAGVPGAGVPGAGVPGAGVPGAGVPGAGVPGAGVPGAGVPGAGVPGAGVPGAGVPGAGVPGAGVPGAGVPGAGVPGAGVPGAGVPGAGVPGAGVPGAGVPGAGVPGAGVPGAGVPGAGVPGAGVPGAGVPGAGVPGAGVPGAGVPGAGVPGAGVPGAGVPGAGVPGAGVPGAGVPGAGVPGAGVPGAGVPGAGVPGAGVPGAGVPGAGVPGAGVPGAGVPGAGVPGAGVPGAGVPGAGVPGAGVPGAGVPGAGVPGAGVPGAGVPGAGVPGAGVPGAGVPGAGVPGAGVPGAGVPGAGVPGAGVPGAGVPGAGVPGAGVPGAGVPGAGVPGAGVPGAGVPGAGVPGAGVPGAGVPGAGVPGAGVPGAGVPGAGVPGAGVPGAGVPGAGVPGAGVPGAGVPGAGVPGAGVPGAGVPGAGVPGAGVPGAGVPGAGVPGAGVPGAGVPGAGVPGAGVPGAGVPGAGVPGAGVPGAGVPGAGVPGAGVPGAGVPGAGVPGAGVPGAGVPGAGVPGAGVPGAGVPGAGVPGAGVPGAGVPGAGVPGAGVPGAGVPGAGVPGAGVPGAGVPGAGVPGAGVPGAGVPGAGVPGAGVPGAGVPGAGCGGCGGCGGCGGCGGCGGCGGCGG
- binding stoichiometry N [1]: 1.01±0.00
- IC50 [2]: 310 nM
- AUC, fold larger than that of CP-DOX (Canine pharmacokinetics): six-fold
- plasma half-life, fold greater than that of CP-DOX (Canine pharmacokinetics): three-fold
- Apparent distribution volume VD (Canine pharmacokinetics; [8]): 0.02 ± 0.00 mL/g
- Distribution half-life β t1/2 (Canine pharmacokinetics; [8]): 1.705 ± 0.822 h
- Elimination rate constant kg (Canine pharmacokinetics; [8]): 0.02 ± 0.00 h⁻¹
- Plasma clearance CL (Canine pharmacokinetics; [8]): 0.0003 ± 0.0000 mL/h/g
- Plasma to tissue rate constant kpt (Canine pharmacokinetics; [8]): 0.06 ± 0.03 h⁻¹
- Tissue to plasma rate constant ktp (Canine pharmacokinetics; [8]): 0.34 ± 0.17 h⁻¹
- Elimination half-life α t1/2 (Canine pharmacokinetics; cephalic vein, 27 DOX Equiv/m^−2 BSA or 0.9 mg DOX Equiv/kg BW, plasma DOX): 30.8 ± 2.0 h
- Apparent distribution volume VD ([3]; 10 mg/kg BW DOX equivalent): 0.34 ± 0.01 mL/g
- Distribution half-life β t1/2 ([3]; 10 mg/kg BW DOX equivalent): 0.207 ± 0.0233 h
- Elimination rate constant kg ([3]; 10 mg/kg BW DOX equivalent): 0.10 ± 0.01 h⁻¹
- Plasma clearance CL ([3]; 10 mg/kg BW DOX equivalent): 0.013 ± 0.000 mL/h/g
- Plasma to tissue rate constant kpt ([3]; 10 mg/kg BW DOX equivalent): 2.08 ± 0.27 h⁻¹
- Tissue to plasma rate constant ktp ([3]; 10 mg/kg BW DOX equivalent): 1.22 ± 0.13 h⁻¹
- Area under the curve AUC ([3]; 10 mg/kg BW DOX equivalent): 1400.4 ± 34.2 µM·h
- Elimination half-life α t1/2 ([3]; 10 mg/kg BW DOX equivalent): 18.3 ± 0.6 h
- Apparent distribution volume VD ([3]; 20 mg/kg BW DOX equivalent): 0.25 ± 0.11 mL/g
- Distribution half-life β t1/2 ([3]; 20 mg/kg BW DOX equivalent): 1.2 ± 0.292 h
- Elimination rate constant kg ([3]; 20 mg/kg BW DOX equivalent): 0.08 ± 0.00 h⁻¹
- Plasma clearance CL ([3]; 20 mg/kg BW DOX equivalent): 0.011 ± 0.000 mL/h/g
- Plasma to tissue rate constant kpt ([3]; 20 mg/kg BW DOX equivalent): 0.25 ± 0.07 h⁻¹
- Tissue to plasma rate constant ktp ([3]; 20 mg/kg BW DOX equivalent): 0.29 ± 0.07 h⁻¹
- Area under the curve AUC ([3]; 20 mg/kg BW DOX equivalent): 3328.5 ± 100.3 µM·h
- Elimination half-life α t1/2 ([3]; 20 mg/kg BW DOX equivalent): 17.5 ± 0.8 h
- linearity of pharmacokinetics (in words) ([3]; 10 vs 20 mg/kg BW DOX equivalent): linear pharmacokinetics
- bioavailability i.e. AUC [3, 9]: 3328.5 ± 100.3 µM·h
- half-life [3, 9]: 17.5 ± 0.8 h
- ρ = Rg/Rh ([4]; 22 ° C.): 0.62
- Rh ([4]; 22 ° C., DLS): 59.0 nm and 59.00 nm
- Nagg ([4]; 22 ° C.): 34.97
- Rg ([4]; 22 ° C.): 36.95 nm
- ρ = Rg/Rh ([4]; 37 ° C.): 0.766
- Rh ([4]; 37 ° C., DLS): 45.63 nm
- Nagg ([4]; 37 ° C.): 42.04
- Rg ([4]; 37 ° C.): 34.97 nm
- nanoparticle formation (in words) ([4]; DLS): form nanoparticles
- aggregation (in words) ([4]; body temperature (37° C.)): remain aggregate-free
- aggregation (in words) ([4]; room temperature (25° C.)): Neither ABDN-CP-DOX nor ABDH-CP-DOX conjugates aggregate
- distribution to organs of the reticuloendothelial system i.e. liver and spleen (in words) [5]: significantly smaller than that of CP-DOX micelles
- ALT [6, 10]: 18 IU/L and 21 IU/L
- AST [6, 10]: 20 IU/L and 31 IU/L
- Alb/Glob Ratio [6, 10]: 1.73 and 1.57
- Albumin [6, 10]: 3.8 g/dL and 3.6 g/dL
- Alkaline Phosphatase [6, 10]: 26 IU/L and 31 IU/L
- Amylase [6, 10]: 597 IU/L and 677 IU/L
- Anion Gap [6, 10]: 21 and 20.4
- Bicarbonate [6, 10]: 22 mmol/L and 21 mmol/L
- Bilirubin-Total [6, 10]: <0.2 mg/dL
- CK [6, 10]: 141 IU/L and 296 IU/L
- Calcium [6, 10]: 10.3 mg/dL and 10.7 mg/dL
- Chloride [6, 10]: 109 mmol/L and 111 mmol/L
- Cholesterol [6, 10]: 153 mg/dL and 94 mg/dL
- Creatinine [6, 10]: 0.7 mg/dL
- GGT [6, 10]: <3 IU/L
- Globulin [6, 10]: 2.2 g/dL and 2.3 g/dL
- Glucose [6, 10]: 90 mg/dL and 82 mg/dL
- Lipase [6, 10]: 57 IU/L
- Magnesium [6, 10]: 1.9 mg/dL and 2.2 mg/dL
- Na/K Ratio [6, 10]: 37 and 33.6
- Osomolality-Calc. [6, 10]: 293.8 mOsm/kg and 293.4 mOsm/kg
- Phosphorus [6, 10]: 4.1 mg/dL and 4.7 mg/dL
- Potassium [6, 10]: 4 mmol/L and 4.4 mmol/L
- Protein-Total [6, 10]: 6 g/dL and 5.9 g/dL
- Sodium [6, 10]: 148 mmol/L
- Urea Nitrogen [6, 10]: 17 mg/dL and 15 mg/dL
- abnormalities in blood serum chemistry (in words) ([6]; one week after infusion): no hematology or serum chemistry abnormalities
- transition temperature after drug (DOX) conjugation [7]: 44 °C
